Experimental data from patent publication US20240317858A1 (Adimab, published 2024).

How the values were obtained:
[1] = biological target: T1, Human CD3εδ Fc heterodimer (Hu CD3ε Fc + CD3δ Fc-HIS) (human, UniProt P07766 22-126; P04234 22-100); assay: BLI (Octet), Fab monovalent, pH 6.0
T1 construct: range 22-126;range 22-100; Made in HEK 293 cells with a heterologous signal peptide; also called Hu CD3εδ-Fc; CD3εδ Fc-HIS heterodimer; not shown: Fc; Fc followed by HIS tag
Experimental: (§1) ForteBio KD measurements (Biolayer interferometry; BLI). ForteBio affinity measurements were performed generally as previously described (Estep, P., et al., High throughput solution-based measurement of antibody-antigen affinity and epitope binning. MAbs, 2013. 5(2): p. 270-8.). Briefly, ForteBio affinity measurements were performed by loading IgGs or CD3εδ Fe-HIS heterodimer onto AHC sensors. Sensors were equilibrated off-line in assay buffer for 30 min and then monitored on-line for 60 seconds for baseline establishment. Sensors with loaded IgGs were exposed to 100 nM antigen (e.g., CD3) for 3 min, afterwards they were transferred to assay buffer for 10 min for off-rate measurement. Sensors loaded with CD3εδ Fe-HIS heterodimer were exposed to 100 nM anti-CD3 Fab for 3 min, afterwards they were transferred to assay buffer for 3 min or 10 min for off-rate measurement. Kinetics were analyzed using the 1:1 binding model. For measuring binding at different pHs, measurements were performed at pre-determined pHs (e.g., pH 7.4 and pH 6.0).
(§2) Anti-CD3 antibodies A001-A005, V002, V004, V007, V009, V010, V013, and V014-V019 were produced as IgG1s in CHO cells, and Fab fragments were generated from IgG1 antibodies by papain digestion and purification as described in Example 2. Human, cynomolgus, rhesus, and mouse CD3εδ Fc heterodimers were produced, and monovalent binding affinity and avidity at pH 7.4 and pH 6.0 were measured using the Octet® HTX instrument (ForteBio) as described in Example 2.

[2] = biological target: T2, Cynomolgus CD3εδ Fc heterodimer (Cy CD3ε Fc + CD3δ Fc-HIS) (cynomolgus, UniProt Q95LI5 22-117; Q95LI8 22-100); assay: BLI (Octet), Fab monovalent, pH 6.0
T2 construct: range 22-117;range 22-100; Made in HEK 293 cells with a heterologous signal peptide; also called Cy CD3εδ-Fc; cyno CD3εδ Fc; not shown: Fc; Fc followed by HIS tag
Experimental: as §1, §2

[3] = biological target: T1, Human CD3εδ Fc heterodimer (Hu CD3ε Fc …); assay: BLI (Octet), Fab monovalent, pH 7.4
Experimental: as §1, §2

[4] = biological target: T2, Cynomolgus CD3εδ Fc heterodimer (Cy …); assay: BLI (Octet), Fab monovalent, pH 7.4
Experimental: as §1, §2

[5] = biological target: T3, Rhesus CD3εδ Fc heterodimer (rhesus); assay: BLI (Octet), Fab monovalent, pH 7.4
T3 construct: extracellular domain; also called Rh CD3εδ-Fc
Experimental: as §1, §2

[6] = biological target: T1, Human CD3εδ Fc heterodimer (Hu CD3ε Fc …); assay: BLI (Octet), CD3εδ Fc on AHC sensor, 100 nM Fab
Experimental: (§3) Affinity of the anti-CD3 antibodies for CD3 was determined by measuring their kinetic constants (kₒₙ, koff, KD) on ForteBio Octet®. ForteBio affinity measurements were performed generally as previously described (Estep et al., MAbs. 2013 5(2):270-8). […] Sensors were equilibrated off-line in assay buffer for 30 minutes and then monitored on-line for 60 seconds for baseline establishment. For monovalent binding measurement, sensors with loaded CD3εδ Fc were exposed to 100 nM anti-CD3 Fab, as further described in Example 2 below] for 3 minutes, afterwards they were transferred to assay buffer for 3 minutes for off-rate measurement. Kinetics data were fit using a 1:1 binding model in the data analysis software provided by ForteBio.

[7] = biological target: T2, Cynomolgus CD3εδ Fc heterodimer (Cy …); assay: BLI (Octet), CD3εδ Fc on AHC sensor, 100 nM Fab
Experimental: as §3

[8] = biological target: T1, Human CD3εδ Fc heterodimer (Hu CD3ε Fc …); assay: SPR (Biacore), Fab over immobilized CD3εδ Fc, pH 6.0
Experimental: (§4) Anti-CD3 antibodies A001-A005, V002, V004, V007, V009, V010, V013, and V014-V019 were produced in CHO cells, and Fab fragments were generated from IgG1 antibodies by papain digestion and purification as described in Example 2. Monovalent binding affinity at pH 7.4 and pH 6.0 was measured via surface plasmon resonance (SPR). Briefly, human or cynomolgus CD3εδ Fe heterodimer produced as described in Example 2 was immobilized to a CM5 sensor chip in a Biacore® X100 (Cytiva, previously GE Healthcare Life Sciences) to a response level of ˜500 RUs. Fabs were then injected at 3-fold increasing concentrations, ranging from 0.74-180 nM. The sensor chip was doubly regenerated between cycles using 0.35 M EDTA and 0.1 M NaOH. The resulting data were double reference subtracted and fit to a 1:1 binding model using Biacore® Evaluation Software.

[9] = biological target: T2, Cynomolgus CD3εδ Fc heterodimer (Cy …); assay: as above
Experimental: as §4

[10] = biological target: T1, Human CD3εδ Fc heterodimer (Hu CD3ε Fc …); assay: SPR (Biacore), Fab over immobilized CD3εδ Fc, pH 7.4
Experimental: as §4

[11] = biological target: T2, Cynomolgus CD3εδ Fc heterodimer (Cy …); assay: as above
Experimental: as §4

T1 sequence (P07766 22-126, stated change not applied, form in doubt, chain 1 of 2): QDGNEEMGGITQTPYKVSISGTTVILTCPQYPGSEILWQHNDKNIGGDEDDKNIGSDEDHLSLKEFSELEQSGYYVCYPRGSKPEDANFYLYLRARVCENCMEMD
T1 sequence (P04234 22-100, stated change not applied, form in doubt, chain 2 of 2): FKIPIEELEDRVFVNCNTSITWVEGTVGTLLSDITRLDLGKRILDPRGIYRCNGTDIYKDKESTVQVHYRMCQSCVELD
T2 sequence (Q95LI5 22-117, stated change not applied, form in doubt, chain 1 of 2): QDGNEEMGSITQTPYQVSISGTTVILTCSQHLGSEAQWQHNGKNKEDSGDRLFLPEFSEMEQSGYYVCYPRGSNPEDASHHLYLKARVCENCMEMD
T2 sequence (Q95LI8 22-100, stated change not applied, form in doubt, chain 2 of 2): as the sequence (P04234 22-100, stated change not applied, form in doubt, chain 2 of 2) above, with I5V, N15K, I20V, S32T, D33N, I34N, T64A, S74N counted along it

Row | Binder | Kd [1] [nM] | Kd [2] [nM] | Kd [3] [nM] | Kd [4] [nM] | Kd [5] [nM] | Kd [6] [nM] | Kd [7] [nM] | Kd [8] [nM] | Kd [9] [nM] | Kd [10] [nM] | Kd [11] [nM]
1 | Antibody No. V002 (ADI-67445) Fab (Fab, V domains shown, Fab by papain digestion of the IgG1) VH: QVQLVQSGAEVKKPGASVKVSCKASGFNIKDYYMHWVRQAPGQRLEWMGWIDLENAETIYDAKFQDRVTITRDTSASTAYMELSSLRSEDTAVYYCARDAYGRYFYDEWGQGTLVTVSS VL: DIVMTQSPDSLAVSLGERATINCKSSQSLLNARTGKNYLAWYQQKPGQPPKLLIYWASTRESGVPDRFSGSGSGTDFTLTISSLQAEDVAVYYCKQSYSRRTFGGGTKVEIK | 8.8 | 8 | 13 | 12 | 15 | 7.84 | 7.33 | 4.2 | 3.3 |  | 
2 | Antibody No. V006 (ADI-67449) Fab (Fab, V domains shown, Fab by papain digestion of the IgG1) VH: QVQLVQSGAEVKKPGASVKVSCKASGFNDKDYYMHWVRQAPGQRLEWMGWIDLENAETIYDAKFQDRVTITRDTSASTAYMELSSLRSEDTAVYYCARDAYGRYFYDVWGQGTLVTVSS VL: DIVMTQSPDSLAVSLGERATINCKSSQSLLNARTGKNYLAWYQQKPGQPPKLLIYWASTRESGVPDRFSGSGSGTDFTLTISSLQAEDVAVYYCKQSYSRRTFGGGTKVEIK |  |  |  |  |  | 7.97 | 8.15 |  |  |  | 
3 | Antibody No. V008 (ADI-70325) Fab (Fab, V domains shown, Fab by papain digestion of the IgG1) VH: QVQLVQSGAEVKKPGASVKVSCKASGFNIKDYYMHWVRQAPGQRLEWIGWIDLENAETVYDAKFQDRVTITRDTSASTAYMELSSLRSEDTAVYYCARDAYGRYFYDVWGQGTLVTVSS VL: DIVMSQSPDSLAVSLGERATINCKSSQSLLNARTGKNYLAWYQQKPGQPPKLLIYWASTRSSGVPDRFSGSGSGTDFTLTISSLQAEDVAVYYCVQSYFRRTFGGGTKVEIK |  |  |  |  |  | 0.95 | 0.91 |  |  |  | 
4 | Antibody No. V009 (ADI-70326) Fab (Fab, V domains shown, Fab by papain digestion of the IgG1) VH: QVQLVQSGAEVKKPGASVKVSCKASGFDIKDYYMHWVRQAPGQRLEWIGWIELENADTVYDAKFQGRVTITRDTSASTAYMELSSLRSEDTAVYYCARDAYGRYFYDVWGQGTLVTVSS VL: DIVMSQSPDSLAVSLGERATINCKSSQSLLNARTGKNYLAWYQQKPGQPPKLLIYWASTRSSGVPDRFSGSGSGTDFTLTISSLQAEDVAVYYCVQSYFRRTFGGGTKVEIK | 1.2 | 1.6 | 1.6 | 1.9 | 1.8 | 0.81 | 0.81 | 1.1 | 0.24 | 0.14 | 0.15
5 | Antibody No. V015 (ADI-76358) Fab (Fab, V domains shown, Fab by papain digestion of the IgG1) VH: QVQLVQSGAEVKKPGASVKVSCKASGFNIKDYYMHWVRQAPGQRLEWMGWIDLENADTIYDAKFQGRVTITRDTSASTAYMELSSLRSEDTAVYYCARDQYGRYFYDVWGQGTLVTVSS VL: DIVMTQSPDSLAVSLGERATINCKSSQSLLNARTGKNYLAWYQQKPGQPPKLLIYWASTRESGVPDRFSGSGSGTDFTLTISSLQAEDVAVYYCKQSYSRRTFGGGTKVEIK | 34 | 29 | 56 | 58 | 53 |  |  | 14 | 11 | 18 | 19
6 | Antibody No. V016 (ADI-76359) Fab (Fab, V domains shown, Fab by papain digestion of the IgG1) VH: QVQLVQSGAEVKKPGASVKVSCKASGFDIKDYYMHWVRQAPGQRLEWMGWIDLENANTIYDAKFQGRVTITRDTSASTAYMELSSLRSEDTAVYYCGRDAYGRYFYDVWGQGTLVTVSS VL: DIVMTQSPDSLAVSLGERATINCKSSQSLLNARTGKNYLAWYQQKPGQPPKLLIYWASTRESGVPDRFSGSGSGTDFTLTISSLQAEDVAVYYCKQSYSLRTFGGGTKVEIK | 37 | 49 | 77 | 75 | 87 |  |  | 22 | 23 | 14 | 16
7 | Antibody No. V018 (ADI-76361) Fab (Fab, V domains shown, Fab by papain digestion of the IgG1) VH: QVQLVQSGAEVKKPGASVKVSCKASGFDIKDYYMHWVRQAPGQRLEWMGWIDLEEGNTIYDAKFQGRVTITRDTSASTAYMELSSLRSEDTAVYYCARDAYGRYFYDVWGQGTLVTVSS VL: DIVMTQSPDSLAVSLGERATINCKSSQSLLNARTGKNYLAWYQQKPGQPPKLLIYWASTRESGVPDRFSGSGSGTDFTLTISSLQAEDVAVYYCKQSYSLRTFGGGTKVEIK | 33 | 17 | 37 | 28 | 29 |  |  | 31 | 29 | 42 | 36
8 | Antibody No. V003 (ADI-67446) Fab (Fab, V domains shown, Fab by papain digestion of the IgG1) VH: QVQLVQSGAEVKKPGASVKVSCKASGFDIKDYYMHWVRQAPGQRLEWMGWIELENADTIYDAKFQGRVTITRDTSASTAYMELSSLRSEDTAVYYCARDAYGRYFYDVWGQGTLVTVSS VL: DIVMTQSPDSLAVSLGERATINCKSSQSLLNARTGKNYLAWYQQKPGQPPKLLIYWASTRESGVPDRFSGSGSGTDFTLTISSLQAEDVAVYYCKQSYSRRTFGGGTKVEIK |  |  |  |  |  | 4.57 | 4.18 |  |  |  | 
9 | Antibody No. V005 (ADI-67448) Fab (Fab, V domains shown, Fab by papain digestion of the IgG1; VH as printed is identical to that of V004) VH: QVQLVQSGAEVKKPGASVKVSCKASGFNIDDYYMHWVRQAPGQRLEWMGWIDLENDNTIYDAKFQGRVTITRDTSASTAYMELSSLRSEDTAVYYCARDAYGRYFYDVWGQGTLVTVSS VL: DIVMTQSPDSLAVSLGERATINCKSSQSLLNARTGKNYLAWYQQKPGQPPKLLIYWASTRESGVPDRFSGSGSGTDFTLTISSLQAEDVAVYYCKQSYSRRTFGGGTKVEIK |  |  |  |  |  | 6.98 | 6.06 |  |  |  | 
10 | Antibody No. V012 (ADI-70329) Fab (Fab, V domains shown, Fab by papain digestion of the IgG1) VH: QVQLVQSGAEVKKPGASVKVSCKASGFNDKDYYMHWVRQAPGQRLEWIGWIDLENAETVYDAKFQDRVTITRDTSASTAYMELSSLRSEDTAVYYCARDAYGRYFYDVWGQGTLVTVSS VL: DIVMSQSPDSLAVSLGERATINCKSSQSLLNARTGKNYLAWYQQKPGQPPKLLIYWASTRSSGVPDRFSGSGSGTDFTLTISSLQAEDVAVYYCVQSYFRRTFGGGTKVEIK |  |  |  |  |  | 1.65 | 1.64 |  |  |  | 
